The results in this text go back to publication PMC3776475.

In test [1] the target is JR-FL SOSIP.R6-IZ-D7324 gp140 expressed in 293S GnTI^-/- cells (HIV-1 isolate JR-FL (subtype B)). Nature of the test: SEC. For orientation: SEC sorts molecules by how far they enter the pores of the column.
Test [2] shares this target. The test is described as follows: native gel or EMSA.
The target in test [3] is JR-FL SOSIP.R6-IZ-D7324 gp140 expressed in 293T cells (HIV-1 isolate JR-FL (subtype B)). Nature of the test: native gel or EMSA. In general terms: A gel shift assay detects complexes by their altered migration in electrophoresis.
The target in test [4] is KNH1144 SOSIP.R6 MPER gp140 expressed in 293S GnTI^-/- cells with furin (HIV-1 isolate KNH1144 (subtype A)). The test is described as follows: SEC.
The target of test [5] is KNH1144 SOSIP.R6 MPER gp140 expressed in 293T cells with furin and kifunensine (HIV-1 isolate KNH1144 (subtype A)). Nature of the test: native gel or EMSA.
The target of test [6] is KNH1144 SOSIP.R6 MPER gp140 expressed in 293T cells with furin, without kifunensine (HIV-1 isolate KNH1144 (subtype A)). The test is described as follows: native gel or EMSA.

With “JR-FL SOSIP.R6-IZ-D7324 gp140 expressed in 293S GnTI^-/- cells”, the stoichiometry N in test [1] and in test [2] was 3 throughout.
Regarding “JR-FL SOSIP.R6-IZ-D7324 gp140 expressed in 293T cells”, the stoichiometry N (commonly a count of units in the complex or per binding partner) in test [3] amounted to 3.
For “KNH1144 SOSIP.R6 MPER gp140 expressed in 293S GnTI^-/- cells with furin (complex)”, the stoichiometry N in test [4] came out at 3.
Take “KNH1144 SOSIP.R6 MPER gp140 expressed in 293T cells with furin and kifunensine (complex)”: the stoichiometry N in test [5] worked out at 3.
For “KNH1144 SOSIP.R6 MPER gp140 expressed in 293T cells with furin, without kifunensine (complex)”, the stoichiometry N in test [6] was found to be 3.
